Laboratory results: publication PMC7102964

Experiments:
Assay in all cases: BLI
Details in all cases: none stated (T7 transcript); 3' end periodate-oxidised for biotin hydrazide; BLI (Octet RED96), biotin-tRNA on streptavidin tips: 50 mM Tris-HCl pH 8.0, 150 mM NaCl, 0.002% Tween-20, 25 C; 1:1 model
[1] = tested on: OSGEPL1 (mature, delta-MTS) (Homo sapiens)
[2] = tested on: OSGEPL1-K203R (Homo sapiens)
[3] = tested on: OSGEPL1-K203Q (Homo sapiens)
[4] = tested on: OSGEPL1-K203A (Homo sapiens)
[5] = tested on: OSGEPL1-K203E (Homo sapiens)
[6] = tested on: OSGEPL1-K299Q (Homo sapiens)

Substance | Kd [1] [µM] | Kd [2] [µM] | Kd [3] [µM] | Kd [4] [µM] | Kd [5] [µM] | Kd [6] [µM]
hmtRNAThr-U34G | 4.1 |  |  |  |  | 
hmtRNAThr | 6.7 | 3.6 | 14 | 29 | 8.5 | 6.8
hmtRNAThr-U34C | 5.5 |  |  |  |  | 
